According to the supplement of paper PMC10065799, “High-throughput profiling of sequence recognition by tyrosine kinases and SH2 domains using bacterial peptide display” (eLife, 2023):

Target: Hck (UniProt P08631)
Test: phosphorylation enrichment, bacterial display (enrichment ratio); higher = better substrate or ligand; peptides without Tyr show the background
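Further: 11-residue human phosphosite peptides and single-mutation variants displayed on the E. coli surface, counted by deep sequencing, each peptide's frequency after selection divided by its frequency in the unselected input library; frequency after pTyr selection over input frequency; kinase dosed for 20-30% of maximal phosphorylation in three min.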

Chain of Hck (P08631 whole entry, looked up): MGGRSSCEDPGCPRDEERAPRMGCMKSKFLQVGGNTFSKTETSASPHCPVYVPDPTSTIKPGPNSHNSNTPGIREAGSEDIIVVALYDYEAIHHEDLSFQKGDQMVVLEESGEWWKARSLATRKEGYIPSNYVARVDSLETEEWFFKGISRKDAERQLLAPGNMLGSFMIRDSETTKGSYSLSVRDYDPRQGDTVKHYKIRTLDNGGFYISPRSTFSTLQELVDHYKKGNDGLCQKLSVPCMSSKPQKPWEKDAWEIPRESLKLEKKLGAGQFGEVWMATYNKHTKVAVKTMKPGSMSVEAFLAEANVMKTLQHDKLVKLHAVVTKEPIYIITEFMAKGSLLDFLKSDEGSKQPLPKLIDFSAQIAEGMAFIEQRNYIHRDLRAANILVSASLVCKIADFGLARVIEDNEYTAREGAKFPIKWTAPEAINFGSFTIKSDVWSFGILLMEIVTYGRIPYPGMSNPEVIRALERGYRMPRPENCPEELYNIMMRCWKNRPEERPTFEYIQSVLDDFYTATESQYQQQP

Sequence	phosphorylation enrichment
AGREEYSAMRD [KRAS_Y64_Q61R]	0.508
TDGNGYISFNE [LCP1_Y28]	0.458
ETDSEYVKLSK [C7orf57_Y70_A74S]	0.604
RASSSYRETPS [SORBS1_Y79]	0.502
EKKDVYKTGEQ [CFH_Y1008_A1010T]	0.561
QMQAAYQKAVA [HBD_Y131_V134A]	0.449
RLNWIYFKDQT [RS1_Y165_YF]	1.02
RTCSSYTIEKI [PARP15_Y520_A521T]	0.726
KNITEYCRDLI [RECQL_Y492]	0.471
MVIPNYSSRTE [UROC1_Y185]	0.329
HNVPICEGFAL [ACTC1_Y168_Y168C_YF]	0.708
GGGFGYQKTKK [DDX18_Y643]	0.379
LNEQHYGGLTG [PGAM4_Y92_R90Q]	0.902
KGFRGYSFDDI [TMEM230_Y110_YF]	0.412
VDTAMYATMQR [TPO_Y55]	5.09
AAARPYHIQKW [ACSBG1_Y677]	0.543
VSSPKYGSNDE [TMCC2_Y473_D476N]	0.426

Sequence	phosphorylation enrichment
KLKRSYCSPDI [USP8_Y717_S718C]	0.393
CPSLPYSPVSS [CAMKK2_Y128]	0.497
FQLPFYNTVPS [BMPR1A_Y458_M460T_YF]	0.687
YPPTHYIRRMP [SLC4A11_Y820_V824M]	0.339
LDYNEYFRYLN [HPRT1_Y198_D201Y]	1.41
KDQGGYAMHQD [MAPT_Y29_T30A]	0.471
CPASVYTKRCS [CPT2_Y508_R503C]	0.392
ARMTNYGLPRY [TSPAN12_Y138]	0.554
RFVFFYSFLLK [PTEN_Y178_YF]	0.509
LLKKMYLMLDN [STAT1_Y203]	0.434
GIVEDYRPPFF [ACVRL1_Y421_YF]	0.413
KIIRRYVSSEG [ANK2_Y3907]	0.371
KSRQIYDAFIM [GRK3_Y109_R104K_YF]	10.4
RDIHDYIKHLG [UNC13C_Y308]	0.519
HDRNTYEKYLG [TF_Y666]	1.4
EQKKYYNAMKN [SCN5A_Y1495_K1500N]	0.405

Target: Jak2 (UniProt O60674)
Sequence (O60674 whole entry, looked up): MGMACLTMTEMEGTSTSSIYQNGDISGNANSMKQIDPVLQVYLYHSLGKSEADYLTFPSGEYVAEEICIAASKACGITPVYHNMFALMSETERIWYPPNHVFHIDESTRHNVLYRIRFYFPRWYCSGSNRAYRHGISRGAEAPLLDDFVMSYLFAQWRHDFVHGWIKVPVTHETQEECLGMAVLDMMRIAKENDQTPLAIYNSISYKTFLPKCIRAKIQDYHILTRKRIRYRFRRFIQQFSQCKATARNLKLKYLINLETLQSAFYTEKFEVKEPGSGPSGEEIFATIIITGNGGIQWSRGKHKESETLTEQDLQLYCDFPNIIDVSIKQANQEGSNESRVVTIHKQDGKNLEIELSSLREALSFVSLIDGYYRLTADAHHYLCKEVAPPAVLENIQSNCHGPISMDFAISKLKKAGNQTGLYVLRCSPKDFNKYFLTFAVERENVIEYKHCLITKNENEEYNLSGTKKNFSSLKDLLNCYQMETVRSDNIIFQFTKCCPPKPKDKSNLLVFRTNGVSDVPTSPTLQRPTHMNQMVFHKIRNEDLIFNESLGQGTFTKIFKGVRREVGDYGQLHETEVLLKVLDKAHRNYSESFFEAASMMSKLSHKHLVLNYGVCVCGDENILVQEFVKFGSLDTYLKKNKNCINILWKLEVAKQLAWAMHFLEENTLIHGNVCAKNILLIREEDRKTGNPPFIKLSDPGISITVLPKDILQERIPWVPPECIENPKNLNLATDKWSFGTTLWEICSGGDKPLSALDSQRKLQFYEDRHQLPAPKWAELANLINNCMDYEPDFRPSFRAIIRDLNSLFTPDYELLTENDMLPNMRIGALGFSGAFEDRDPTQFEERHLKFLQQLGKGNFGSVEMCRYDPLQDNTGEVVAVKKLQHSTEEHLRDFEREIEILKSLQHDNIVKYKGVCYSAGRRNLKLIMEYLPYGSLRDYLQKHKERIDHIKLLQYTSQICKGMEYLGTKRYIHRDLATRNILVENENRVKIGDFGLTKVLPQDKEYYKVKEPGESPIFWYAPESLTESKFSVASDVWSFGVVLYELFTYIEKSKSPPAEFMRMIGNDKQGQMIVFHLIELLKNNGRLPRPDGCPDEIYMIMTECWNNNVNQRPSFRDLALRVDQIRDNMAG
Test: as above

Sequence	phosphorylation enrichment
AGREEYSAMRD [KRAS_Y64_Q61R]	0.686
TDGNGYISFNE [LCP1_Y28]	0.824
ETDSEYVKLSK [C7orf57_Y70_A74S]	1.01
RASSSYRETPS [SORBS1_Y79]	1.49
EKKDVYKTGEQ [CFH_Y1008_A1010T]	0.437
QMQAAYQKAVA [HBD_Y131_V134A]	0.635
RLNWIYFKDQT [RS1_Y165_YF]	2.15
RTCSSYTIEKI [PARP15_Y520_A521T]	1.13
KNITEYCRDLI [RECQL_Y492]	0.791
MVIPNYSSRTE [UROC1_Y185]	0.486
HNVPICEGFAL [ACTC1_Y168_Y168C_YF]	1.15
GGGFGYQKTKK [DDX18_Y643]	0.814
LNEQHYGGLTG [PGAM4_Y92_R90Q]	0.915
KGFRGYSFDDI [TMEM230_Y110_YF]	0.835
VDTAMYATMQR [TPO_Y55]	0.531
AAARPYHIQKW [ACSBG1_Y677]	0.682
VSSPKYGSNDE [TMCC2_Y473_D476N]	0.857

Sequence	phosphorylation enrichment
KLKRSYCSPDI [USP8_Y717_S718C]	0.648
CPSLPYSPVSS [CAMKK2_Y128]	0.905
FQLPFYNTVPS [BMPR1A_Y458_M460T_YF]	0.704
YPPTHYIRRMP [SLC4A11_Y820_V824M]	0.4
LDYNEYFRYLN [HPRT1_Y198_D201Y]	7.21
KDQGGYAMHQD [MAPT_Y29_T30A]	0.528
CPASVYTKRCS [CPT2_Y508_R503C]	0.518
ARMTNYGLPRY [TSPAN12_Y138]	0.606
RFVFFYSFLLK [PTEN_Y178_YF]	1.64
LLKKMYLMLDN [STAT1_Y203]	0.939
GIVEDYRPPFF [ACVRL1_Y421_YF]	0.814
KIIRRYVSSEG [ANK2_Y3907]	0.531
KSRQIYDAFIM [GRK3_Y109_R104K_YF]	0.799
RDIHDYIKHLG [UNC13C_Y308]	0.614
HDRNTYEKYLG [TF_Y666]	0.453
EQKKYYNAMKN [SCN5A_Y1495_K1500N]	0.489

Target: MERTK (UniProt Q12866)
Sequence (Q12866 whole entry, looked up): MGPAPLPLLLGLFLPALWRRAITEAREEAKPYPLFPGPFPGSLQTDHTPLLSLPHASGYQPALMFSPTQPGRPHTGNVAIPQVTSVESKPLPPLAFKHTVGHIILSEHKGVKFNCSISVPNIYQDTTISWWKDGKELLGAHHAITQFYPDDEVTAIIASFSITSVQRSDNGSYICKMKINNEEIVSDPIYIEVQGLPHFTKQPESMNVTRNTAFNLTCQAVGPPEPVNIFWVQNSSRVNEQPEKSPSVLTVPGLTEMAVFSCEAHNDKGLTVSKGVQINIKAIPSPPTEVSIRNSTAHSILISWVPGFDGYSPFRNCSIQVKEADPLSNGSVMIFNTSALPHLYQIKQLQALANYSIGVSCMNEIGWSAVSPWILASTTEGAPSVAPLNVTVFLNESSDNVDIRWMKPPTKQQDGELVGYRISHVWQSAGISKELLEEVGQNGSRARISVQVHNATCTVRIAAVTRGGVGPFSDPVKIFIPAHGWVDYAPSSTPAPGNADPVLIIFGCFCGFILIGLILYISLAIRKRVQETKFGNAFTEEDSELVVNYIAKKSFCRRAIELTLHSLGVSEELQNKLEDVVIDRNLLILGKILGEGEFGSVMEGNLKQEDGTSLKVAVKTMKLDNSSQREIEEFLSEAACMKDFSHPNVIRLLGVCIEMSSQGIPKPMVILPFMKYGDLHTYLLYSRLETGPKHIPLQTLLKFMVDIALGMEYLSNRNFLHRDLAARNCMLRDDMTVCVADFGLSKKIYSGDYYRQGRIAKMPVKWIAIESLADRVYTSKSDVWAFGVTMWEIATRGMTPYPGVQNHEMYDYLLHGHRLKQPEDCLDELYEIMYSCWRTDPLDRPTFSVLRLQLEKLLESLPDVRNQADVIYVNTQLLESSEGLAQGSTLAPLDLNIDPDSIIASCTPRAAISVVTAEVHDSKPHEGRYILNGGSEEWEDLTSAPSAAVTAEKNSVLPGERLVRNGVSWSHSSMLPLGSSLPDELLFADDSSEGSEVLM
Test: as above

Sequence	phosphorylation enrichment
AGREEYSAMRD [KRAS_Y64_Q61R]	0.425
TDGNGYISFNE [LCP1_Y28]	0.412
ETDSEYVKLSK [C7orf57_Y70_A74S]	0.435
RASSSYRETPS [SORBS1_Y79]	0.644
EKKDVYKTGEQ [CFH_Y1008_A1010T]	0.382
QMQAAYQKAVA [HBD_Y131_V134A]	0.368
RLNWIYFKDQT [RS1_Y165_YF]	0.49
RTCSSYTIEKI [PARP15_Y520_A521T]	0.533
KNITEYCRDLI [RECQL_Y492]	0.397
MVIPNYSSRTE [UROC1_Y185]	0.425
HNVPICEGFAL [ACTC1_Y168_Y168C_YF]	0.673
GGGFGYQKTKK [DDX18_Y643]	0.308
LNEQHYGGLTG [PGAM4_Y92_R90Q]	0.845
KGFRGYSFDDI [TMEM230_Y110_YF]	0.375
VDTAMYATMQR [TPO_Y55]	0.764
AAARPYHIQKW [ACSBG1_Y677]	0.377
VSSPKYGSNDE [TMCC2_Y473_D476N]	0.454

Sequence	phosphorylation enrichment
KLKRSYCSPDI [USP8_Y717_S718C]	0.459
CPSLPYSPVSS [CAMKK2_Y128]	0.527
FQLPFYNTVPS [BMPR1A_Y458_M460T_YF]	0.569
YPPTHYIRRMP [SLC4A11_Y820_V824M]	0.447
LDYNEYFRYLN [HPRT1_Y198_D201Y]	0.573
KDQGGYAMHQD [MAPT_Y29_T30A]	0.426
CPASVYTKRCS [CPT2_Y508_R503C]	0.447
ARMTNYGLPRY [TSPAN12_Y138]	0.497
RFVFFYSFLLK [PTEN_Y178_YF]	0.539
LLKKMYLMLDN [STAT1_Y203]	0.401
GIVEDYRPPFF [ACVRL1_Y421_YF]	0.417
KIIRRYVSSEG [ANK2_Y3907]	0.351
KSRQIYDAFIM [GRK3_Y109_R104K_YF]	11.7
RDIHDYIKHLG [UNC13C_Y308]	0.46
HDRNTYEKYLG [TF_Y666]	0.765
EQKKYYNAMKN [SCN5A_Y1495_K1500N]	0.356

Test system: c-Abl (mouse)
Test: as above

Sequence	phosphorylation enrichment
AGREEYSAMRD [KRAS_Y64_Q61R]	0.655
TDGNGYISFNE [LCP1_Y28]	0.624
ETDSEYVKLSK [C7orf57_Y70_A74S]	0.695
RASSSYRETPS [SORBS1_Y79]	0.757
EKKDVYKTGEQ [CFH_Y1008_A1010T]	0.42
QMQAAYQKAVA [HBD_Y131_V134A]	0.451
RLNWIYFKDQT [RS1_Y165_YF]	1.35
RTCSSYTIEKI [PARP15_Y520_A521T]	0.84
KNITEYCRDLI [RECQL_Y492]	0.66
MVIPNYSSRTE [UROC1_Y185]	0.438
HNVPICEGFAL [ACTC1_Y168_Y168C_YF]	1.06
GGGFGYQKTKK [DDX18_Y643]	0.556
LNEQHYGGLTG [PGAM4_Y92_R90Q]	1.5
KGFRGYSFDDI [TMEM230_Y110_YF]	0.551
VDTAMYATMQR [TPO_Y55]	0.705
AAARPYHIQKW [ACSBG1_Y677]	0.673
VSSPKYGSNDE [TMCC2_Y473_D476N]	0.801

Sequence	phosphorylation enrichment
KLKRSYCSPDI [USP8_Y717_S718C]	0.534
CPSLPYSPVSS [CAMKK2_Y128]	0.654
FQLPFYNTVPS [BMPR1A_Y458_M460T_YF]	0.625
YPPTHYIRRMP [SLC4A11_Y820_V824M]	0.484
LDYNEYFRYLN [HPRT1_Y198_D201Y]	1.81
KDQGGYAMHQD [MAPT_Y29_T30A]	0.557
CPASVYTKRCS [CPT2_Y508_R503C]	0.442
ARMTNYGLPRY [TSPAN12_Y138]	0.66
RFVFFYSFLLK [PTEN_Y178_YF]	1.45
LLKKMYLMLDN [STAT1_Y203]	0.643
GIVEDYRPPFF [ACVRL1_Y421_YF]	0.701
KIIRRYVSSEG [ANK2_Y3907]	0.416
KSRQIYDAFIM [GRK3_Y109_R104K_YF]	16.5
RDIHDYIKHLG [UNC13C_Y308]	0.373
HDRNTYEKYLG [TF_Y666]	0.731
EQKKYYNAMKN [SCN5A_Y1495_K1500N]	0.489
